Reference: US10226417B2, “Drug delivery systems and applications” (priority 2011, dated 2019)
Values after ≈ are worked out from the molar mass of the structure shown. Read-outs that look alike come from different tables or passages of the source.

Experiments:
[1] = cited from earlier work
[2] = cited from earlier work; remark: listed apart in the source
[3] = Circular dichroism analysis of released protein; format: physicochemical; conditions: protein released from O-LA-SG into PBS, sample at day 40
Procedure: At day 40 a sample of the PBS solution was tested be circular dichroism CD analysis to monitor for any changes in protein structure.

[4] = Isoelectric focusing (IEF) of ovalbumin during processing; format: physicochemical
Procedure: Samples of O-LA were prepared as in Example 5. Samples at each step of the process were collected and analyzed by Isoelectric focusing (IEF) which measures the isoelectric point (pI) of the protein. A shift in pI of more than 0.2 is indicative of a single deamidation reaction. All samples had pI values that indicated no deamidation had occurred. The same samples were analyzed by ELISA. The ELISA tests indicated no denaturation of the epitope had occurred.

[5] = 1-octanol/water (pH 7.4; buffer solution)

**Q.** Which “log P” value ([1]; pH 7.4) does the source give for `CCCCCCCCCC(=O)O` [decanoic] here?
**A.** 3.75

**Q.** With `CCCCCCCCCCCC(=O)O` [dodecanoic] as the molecule, how does the Methyl ester solubility ([2]; value is for the methyl ester of the acid named in the row) read?
**A.** 4.8 µg/mL

**Q.** What about the “Solubility in water at 20° C.” value [2] of the same molecule?
**A.** 0.055 mg/mL (≈ 275 µM)

**Q.** What about the “log P” value [1, 5] of the same molecule?
**A.** 4.77

**Q.** For `CCCCCCCCCCCCCCCC(=O)OC` [methyl palmitate], which “log P” value [1, 5] is on record?
**A.** 7.41

**Q.** For `CCCCCCCCCCCCCCCCCC(=O)OC` [methyl stearate], which “log P” value [1, 5] is on record?
**A.** 8.43

**Q.** With `CCCCCCCCCCCCCC(=O)O` [tetradecanoic] as the molecule, how does the “Solubility in water at 20° C.” value [2] read?
**A.** 0.02 mg/mL (≈ 87.6 µM)

B1: ovalbumin: protein albumin used to model a water soluble therapeutic agent protein (protein, UniProt P01012 2-386, looked up)
Ovalbumin: GSIGAASMEFCFDVFKELKVHHANENIFYCPIAIMSALAMVYLGAKDSTRTQINKVVRFDKLPGFGDSIEAQCGTSVNVHSSLRDILNQITKPNDVYSFSLASRLYAEERYPILPEYLQCVKELYRGGLEPINFQTAADQARELINSWVESQTNGIIRNVLQPSSVDSQTAMVLVNAIVFKGLWEKAFKDEDTQAMPFRVTEQESKPVQMMYQIGLFRVASMASEKMKILELPFASGTMSMLVLLPDEVSGLEQLESIINFEKLTEWTSSNVMEERKIKVYLPRMKMEEKYNLTSVLMAMGITDVFSSSANLSGISSAESLKISQAVHAAHAEINEAGREVVGSAEAGVDAASVSEEFRADHPFLFCIKHIATNAVLFFGRCVSP
**Q.** For B1, which “change in protein structure by circular dichroism” value [3] is on record?
**A.** no wavelength shift

B2: Albumin powder: ovalbumin powder, process sample before grinding (protein, UniProt P01012 2-386, looked up)
Ovalbumin: B1 Ovalbumin
modifications: powder
notes: ovalbumin powder, process sample before grinding
**Q.** With B2 as the molecule, how does the “IEF data Ovalbumin A1 %” value ([4]; Sample 1) read?
**A.** 80.9%

**Q.** What about the “IEF data Ovalbumin A1 pI” value ([4]; Sample 1) of the same molecule?
**A.** 5.10

**Q.** What about the “IEF data Ovalbumin A2 + A3 %” value ([4]; Sample 1) of the same molecule?
**A.** 19.1%

**Q.** And the “IEF data Ovalbumin A2 + A3 pI” value ([4]; Sample 1)?
**A.** 5.14

**Q.** What about the “IEF data Ovalbumin A1 %” value ([4]; Sample 2) of the same molecule?
**A.** 82.2%

**Q.** And the “IEF data Ovalbumin A1 pI” value ([4]; Sample 2)?
**A.** 5.09

**Q.** And the “IEF data Ovalbumin A2 + A3 %” value ([4]; Sample 2)?
**A.** 17.8%

**Q.** What about the “IEF data Ovalbumin A2 + A3 pI” value ([4]; Sample 2) of the same molecule?
**A.** 5.14

B3: Ground Albumin powder: ovalbumin ground to a fine powder, process sample (protein, UniProt P01012 2-386, looked up)
Ovalbumin: B1 Ovalbumin
modifications: ground powder
notes: ovalbumin ground to a fine powder, process sample
**Q.** For B3, which “IEF data Ovalbumin A1 %” value ([4]; Sample 1) is on record?
**A.** 81.7%

**Q.** And the “IEF data Ovalbumin A1 pI” value ([4]; Sample 1)?
**A.** 5.10

**Q.** And the “IEF data Ovalbumin A2 + A3 %” value ([4]; Sample 1)?
**A.** 18.3%

**Q.** What about the “IEF data Ovalbumin A2 + A3 pI” value ([4]; Sample 1) of the same molecule?
**A.** 5.15

**Q.** And the “IEF data Ovalbumin A1 %” value ([4]; Sample 2)?
**A.** 81.2%

**Q.** What about the “IEF data Ovalbumin A1 pI” value ([4]; Sample 2) of the same molecule?
**A.** 5.11

**Q.** What about the “IEF data Ovalbumin A2 + A3 %” value ([4]; Sample 2) of the same molecule?
**A.** 18.8%

**Q.** And the “IEF data Ovalbumin A2 + A3 pI” value ([4]; Sample 2)?
**A.** 5.15
